Laboratory results as given in patent US20190144566A1 (ORUM THERAPEUTICS, published 2019).

Molecular target: T1, mCherry (red fluorescence) H-RAS G12V (UniProt P01112 1-186)
T1 construct: Expressed inside NIH3T3 cells, located at the inner cell membrane; also called intracellular H-RAS G12V mutants; not shown: mCherry red fluorescent protein
Assay: confocal co-localisation in NIH3T3 cells expressing mCherry H-RAS G12V

B1: cytosol-penetrating antibody (cytotransmab) TMab4 (antibody, V domains shown)
VH: EVQLVESGGGLVQPGGSLRLSCAASGYTFTSYVMHWVRQAPGKGLEWVSAINPYNDGNYYADSVKGRFTISRDNSRKTLYLQMNSLRAEDTAVYYCARGAYKRGYAMDYWGQGTTVTVSS
VL: DLVMTQSPSSLSASVGDRVTITCKSSQSLFNSRTRKNYLAWYQQKPGKAPKLLIYWASTRESGVPSRFSGSGSGTDFTLTISSLQPEDFATYYCQQYYYHMYTFGQGTKVEIKR
notes: Intact IgG-format monoclonal antibody with CH1-hinge-CH2-CH3 and CL; Used as negative control in the RAS assays; also called CT
  binding result: no binding (tested: 2 µM)
